Residue numbers refer to the chain shown, from its start. Where two headings read alike, the source gives them in different places.
T1: XPF-HLD (human, UniProt Q92889 12-672)
T1 sequence: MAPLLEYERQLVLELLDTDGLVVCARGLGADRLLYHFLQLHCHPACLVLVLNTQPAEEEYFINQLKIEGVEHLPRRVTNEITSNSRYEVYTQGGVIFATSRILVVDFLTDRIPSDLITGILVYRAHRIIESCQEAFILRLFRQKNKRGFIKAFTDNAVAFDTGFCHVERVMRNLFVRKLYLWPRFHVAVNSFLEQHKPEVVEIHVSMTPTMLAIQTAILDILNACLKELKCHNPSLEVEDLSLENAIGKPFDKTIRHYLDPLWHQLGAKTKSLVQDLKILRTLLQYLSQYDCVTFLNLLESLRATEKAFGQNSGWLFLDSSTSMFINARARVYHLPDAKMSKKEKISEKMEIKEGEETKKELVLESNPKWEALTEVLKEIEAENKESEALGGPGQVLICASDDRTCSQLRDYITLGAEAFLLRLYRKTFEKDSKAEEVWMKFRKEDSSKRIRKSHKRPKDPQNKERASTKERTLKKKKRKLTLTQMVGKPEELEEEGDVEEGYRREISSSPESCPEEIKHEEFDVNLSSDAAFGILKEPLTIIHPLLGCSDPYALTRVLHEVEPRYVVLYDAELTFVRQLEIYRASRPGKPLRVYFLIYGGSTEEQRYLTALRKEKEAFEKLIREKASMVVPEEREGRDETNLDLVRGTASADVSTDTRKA

T2: XPF;ERCC1 (human;human, UniProt Q92889;P07992 12-916;1-297, |)
T2 sequence 1: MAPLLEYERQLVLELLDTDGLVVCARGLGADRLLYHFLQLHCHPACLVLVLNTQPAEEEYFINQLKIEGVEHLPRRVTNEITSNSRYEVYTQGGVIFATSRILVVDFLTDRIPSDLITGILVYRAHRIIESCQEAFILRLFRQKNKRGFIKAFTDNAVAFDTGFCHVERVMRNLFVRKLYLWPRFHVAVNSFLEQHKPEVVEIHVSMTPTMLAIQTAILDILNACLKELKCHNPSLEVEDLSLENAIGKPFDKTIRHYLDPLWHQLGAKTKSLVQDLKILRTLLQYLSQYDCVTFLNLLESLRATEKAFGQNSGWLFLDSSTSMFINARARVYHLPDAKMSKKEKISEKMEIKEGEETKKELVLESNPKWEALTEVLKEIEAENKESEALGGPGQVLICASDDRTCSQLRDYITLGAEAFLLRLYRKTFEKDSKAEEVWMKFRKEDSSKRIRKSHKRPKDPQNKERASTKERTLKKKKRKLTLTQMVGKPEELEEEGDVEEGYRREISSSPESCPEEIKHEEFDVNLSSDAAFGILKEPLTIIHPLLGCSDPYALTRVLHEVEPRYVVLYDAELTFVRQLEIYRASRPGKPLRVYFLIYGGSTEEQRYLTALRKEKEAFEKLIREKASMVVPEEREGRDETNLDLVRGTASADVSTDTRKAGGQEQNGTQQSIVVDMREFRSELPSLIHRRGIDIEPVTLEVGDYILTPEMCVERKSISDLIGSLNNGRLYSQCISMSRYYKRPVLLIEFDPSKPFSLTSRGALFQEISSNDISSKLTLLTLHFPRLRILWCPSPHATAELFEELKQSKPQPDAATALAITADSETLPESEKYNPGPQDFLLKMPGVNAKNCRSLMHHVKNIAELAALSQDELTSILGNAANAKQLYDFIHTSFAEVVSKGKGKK
T2 sequence 2: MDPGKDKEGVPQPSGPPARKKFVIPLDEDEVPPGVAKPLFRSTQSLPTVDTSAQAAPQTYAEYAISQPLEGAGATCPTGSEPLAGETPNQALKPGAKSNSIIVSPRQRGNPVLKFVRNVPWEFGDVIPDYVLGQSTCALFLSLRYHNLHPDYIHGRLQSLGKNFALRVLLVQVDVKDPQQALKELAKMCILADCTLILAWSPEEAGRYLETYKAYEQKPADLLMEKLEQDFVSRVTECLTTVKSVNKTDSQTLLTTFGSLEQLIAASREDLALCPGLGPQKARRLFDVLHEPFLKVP

B1: 15-mer single strand (FP) (ssDNA)
DNA: GCGCTCGGCGTTTTT
B2: Stem10-loop20 X=C Y=T (structured_DNA)
DNA: CAGCGCCTGGTTTTTTTTTTTTTTTTTTTTCCAGGCGCTG
B3: Stem10-loop20 X=G Y=G (structured_DNA)
DNA: B2 DNA with C7G, T8G, A33C, G34C
B4: Stem10-loop20 X=T Y=T (structured_DNA)
DNA: B2 DNA with C7T, G34A
B5: Duplex with 2T loop (stem10-loop2), SPR (structured_DNA)
DNA: CAGCGCTCGGTTCCGAGCGCTG
B6: 2T stem-loop duplex (FP) (structured_DNA)
DNA: CAGCGCTCGGTTCCGAGCGCTG

Key:
[1] = target: T1, XPF-HLD; test: fluorescence polarization
[2] = target: T1, XPF-HLD; test: fluorescence polarization; remark: listed apart in the source
[3] = target: T1, XPF-HLD; test: fluorescence polarization; remark: listed apart in the source
[4] = target: T2, XPF;ERCC1; test: SPR

Binder	Kd [1] [nM]	binding result [3]	other results
B1	263	–	–
B2	–	–	Kd [2]: 63 nM
B3	–	binds	–
B4	–	binds	–
B5	–	–	binding result [4]: no binding
B6	217	–	–
